The source of these data is publication PMC11168923 (Nature, 2024).

In series [1] the target is T1, FLVCR2 (Homo sapiens, UniProt Q9UPI3).
T1 construct: full length; transport: pcDNA3.1 in HEK293 with CHKA or ETNK1; structures and fluorescence: C-terminal FLAG tag, Flp-In T-REx293, LMNG
T1 sequence (Q9UPI3 1-526): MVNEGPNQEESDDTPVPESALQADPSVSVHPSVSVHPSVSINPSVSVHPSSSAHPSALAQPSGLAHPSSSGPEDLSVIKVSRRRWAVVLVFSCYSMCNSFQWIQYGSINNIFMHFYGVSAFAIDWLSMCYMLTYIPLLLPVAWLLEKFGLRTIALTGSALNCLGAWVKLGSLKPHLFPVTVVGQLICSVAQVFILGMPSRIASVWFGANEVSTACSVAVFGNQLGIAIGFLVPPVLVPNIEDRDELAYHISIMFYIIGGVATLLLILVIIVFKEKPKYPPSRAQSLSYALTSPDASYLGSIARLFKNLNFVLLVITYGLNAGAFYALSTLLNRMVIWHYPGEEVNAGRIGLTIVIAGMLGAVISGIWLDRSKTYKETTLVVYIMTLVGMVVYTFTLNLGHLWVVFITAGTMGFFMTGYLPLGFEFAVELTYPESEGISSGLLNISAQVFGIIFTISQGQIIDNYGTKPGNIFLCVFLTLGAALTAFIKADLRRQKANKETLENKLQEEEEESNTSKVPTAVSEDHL
Nature of the series: intrinsic tryptophan fluorescence shift (F350/F330). It is filed as binding. The note with it: 0.5 µM protein; LMNG; pH 7.4; room temperature.

The target in series [2] is T2, FLVCR1 (FLVCR1a) (Homo sapiens, UniProt Q9Y5Y0).
T2 construct: full length; transport: pcDNA3.1 in HEK293 with CHKA or ETNK1; structures and fluorescence: C-terminal FLAG tag, Flp-In T-REx293, LMNG
T2 sequence (Q9Y5Y0 1-555): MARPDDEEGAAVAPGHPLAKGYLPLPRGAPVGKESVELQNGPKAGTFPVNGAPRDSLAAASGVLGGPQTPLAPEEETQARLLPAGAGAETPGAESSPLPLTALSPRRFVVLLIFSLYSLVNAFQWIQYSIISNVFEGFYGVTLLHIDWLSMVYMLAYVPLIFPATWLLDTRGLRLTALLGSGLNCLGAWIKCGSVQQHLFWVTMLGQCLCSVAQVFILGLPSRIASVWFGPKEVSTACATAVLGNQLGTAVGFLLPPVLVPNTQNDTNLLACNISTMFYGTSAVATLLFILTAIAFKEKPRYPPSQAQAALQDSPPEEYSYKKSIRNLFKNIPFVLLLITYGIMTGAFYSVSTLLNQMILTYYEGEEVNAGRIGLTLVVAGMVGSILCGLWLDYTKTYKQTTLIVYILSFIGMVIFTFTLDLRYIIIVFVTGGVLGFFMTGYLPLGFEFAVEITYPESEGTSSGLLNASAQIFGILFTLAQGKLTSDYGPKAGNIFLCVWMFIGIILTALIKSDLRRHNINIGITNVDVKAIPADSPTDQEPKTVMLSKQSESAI
The description is as above. Format: binding. Particulars: 0.5 µM protein; LMNG; pH 7.4; room temperature.

Substrate in series [3]: C[N+](C)(C)CCO
Nature of the series: radioligand uptake dose curve in HEK293 cells. It is filed as cell-based, Homo sapiens. Particulars: CHKA co-expressed, DMEM, 37 °C, 1 h, labelled compound.

Substrate in series [4]: NCCO
Nature of the series: radioligand uptake dose curve in HEK293 cells. It is filed as cell-based, Homo sapiens. The note with it: ETNK1 co-expressed, DMEM, 37 °C, 1 h, labelled compound.

Regarding `C[N+](C)(C)CCO` [choline], the “shift of F350/F330” value is “Shifts of tryptophan fluorescence of FLVCR1 and FLVCR2 in the presence of choline or betaine” in series [1]; “Shifts of tryptophan fluorescence of FLVCR1 and FLVCR2 in the presence of choline or betaine” in series [2].

B1: FLVCR1 (FLVCR1a) (Homo sapiens) (protein)
chain: MARPDDEEGAAVAPGHPLAKGYLPLPRGAPVGKESVELQNGPKAGTFPVNGAPRDSLAAASGVLGGPQTPLAPEEETQARLLPAGAGAETPGAESSPLPLTALSPRRFVVLLIFSLYSLVNAFQWIQYSIISNVFEGFYGVTLLHIDWLSMVYMLAYVPLIFPATWLLDTRGLRLTALLGSGLNCLGAWIKCGSVQQHLFWVTMLGQCLCSVAQVFILGLPSRIASVWFGPKEVSTACATAVLGNQLGTAVGFLLPPVLVPNTQNDTNLLACNISTMFYGTSAVATLLFILTAIAFKEKPRYPPSQAQAALQDSPPEEYSYKKSIRNLFKNIPFVLLLITYGIMTGAFYSVSTLLNQMILTYYEGEEVNAGRIGLTLVVAGMVGSILCGLWLDYTKTYKQTTLIVYILSFIGMVIFTFTLDLRYIIIVFVTGGVLGFFMTGYLPLGFEFAVEITYPESEGTSSGLLNASAQIFGILFTLAQGKLTSDYGPKAGNIFLCVWMFIGIILTALIKSDLRRHNINIGITNVDVKAIPADSPTDQEPKTVMLSKQSESAI
notes: full length; transport: pcDNA3.1 in HEK293 with CHKA or ETNK1; structures and fluorescence: C-terminal FLAG tag, Flp-In T-REx293, LMNG
Regarding B1, the Michaelis constant (Km) is given as 47.4 ± 9.8 µM in series [3] and 8 ± 1.5 µM in series [4].

B2: FLVCR2 (Homo sapiens) (protein)
chain: MVNEGPNQEESDDTPVPESALQADPSVSVHPSVSVHPSVSINPSVSVHPSSSAHPSALAQPSGLAHPSSSGPEDLSVIKVSRRRWAVVLVFSCYSMCNSFQWIQYGSINNIFMHFYGVSAFAIDWLSMCYMLTYIPLLLPVAWLLEKFGLRTIALTGSALNCLGAWVKLGSLKPHLFPVTVVGQLICSVAQVFILGMPSRIASVWFGANEVSTACSVAVFGNQLGIAIGFLVPPVLVPNIEDRDELAYHISIMFYIIGGVATLLLILVIIVFKEKPKYPPSRAQSLSYALTSPDASYLGSIARLFKNLNFVLLVITYGLNAGAFYALSTLLNRMVIWHYPGEEVNAGRIGLTIVIAGMLGAVISGIWLDRSKTYKETTLVVYIMTLVGMVVYTFTLNLGHLWVVFITAGTMGFFMTGYLPLGFEFAVELTYPESEGISSGLLNISAQVFGIIFTISQGQIIDNYGTKPGNIFLCVFLTLGAALTAFIKADLRRQKANKETLENKLQEEEEESNTSKVPTAVSEDHL
notes: as for B1
On to B2, for which the Michaelis constant (Km) in series [3] turned out to be 64.0 ± 21.0 µM; in series [4], 41.5 ± 32.0 µM.
